We go through three molecules from paper PMC5256927, “Proteolysis-Dependent Remodeling of the Tubulin Homolog FtsZ at the Division Septum in Escherichia coli” (PLoS ONE, 2017).

Data set [1] has as its target Gfp-ZC67 (E. coli) (UniProt P0A9A6).
Data set [2] has as its target Gfp-ZC67(R379E) (E. coli) (UniProt P0A9A6).
Data set [3] deals with the molecule itself. As to the kind of experiment: co-sedimentation; polymers collected by ultracentrifugation (129,000xg, 30 min, 23°C) after 3 min with GTP (2 mM) and a regenerating system in 50 mM MES pH 6.5, 100 mM KCl, 10 mM MgCl2; FtsZ and/or Gfp-FtsZ, 10 μM total; pellets and supernatants by SDS-PAGE.
Data set [4] concerns the molecule itself. As to the kind of experiment: cross-linking + other: sucrose gradient fractionation; without GTP; labeled FtsZ 24 μM in 50 mM MES pH 6.5, 100 mM KCl, 10 mM MgCl2; cross-linked with DSP (0.6 mM), 5–20% sucrose gradient with 40% cushion, 100,000xg, 180 min, 4°C; fractions read by fluorescence.

For the molecule “ClpXP (from UniProt P0A6H1 1-424; P0A6G7 15-207) (complex)”, the degradation of Gfp-ZC67 (3 μM) by ClpXP (1 μM) with ATP (5 mM): loss of Gfp fluorescence after 60 min (% of the initial fluorescence) in data set [1] was found to be 25. For the same molecule, in data set [2], the degradation of Gfp-ZC67(R379E) (3 μM) by ClpXP (1 μM) with ATP (5 mM): loss of fluorescence with time, against Gfp-ZC67 (% more slowly than Gfp-ZC67) came out at 50.

B1: FtsZ (natural protein, E. coli, UniProt P0A9A6 1-383, looked up)
chain: MFEPMELTNDAVIKVIGVGGGGGNAVEHMVRERIEGVEFFAVNTDAQALRKTAVGQTIQIGSGITKGLGAGANPEVGRNAADEDRDALRAALEGADMVFIAAGMGGGTGTGAAPVVAEVAKDLGILTVAVVTKPFNFEGKKRMAFAEQGITELSKHVDSLITIPNDKLLKVLGRGISLLDAFGAANDVLKGAVQGIAELITRPGLMNVDFADVRTVMSEMGYAMMGSGVASGEDRAEEAAEMAISSPLLEDIDLSGARGVLVNITAGFDLRLDEFETVGNTIRAFASDNATVVIGTSLDPDMNDELRVTVVATGIGMDKRPEITLVTNKQVQQPVMDRYQQHGMAPLTQEQKPVAKVVNDNAPQTAKEPDYLDIPAFLRKQAD
notes: FtsZ, E. coli, cell division protein (tubulin homolog); schematic gives polymerization domain 1-316, unstructured linker 317-369, C-terminal region 370-383; plasmid pET-FtsZ; also called native FtsZ; wild type FtsZ; source: E. coli BL21 (λDE3), purified as described [24,25,72,73]
B1: the binding result in data set [3] was “binds”.

B2: Alexa Fluor labeled FtsZ (FtsZ-AF488) (natural protein, E. coli, UniProt P0A9A6 1-383, looked up)
chain: MFEPMELTNDAVIKVIGVGGGGGNAVEHMVRERIEGVEFFAVNTDAQALRKTAVGQTIQIGSGITKGLGAGANPEVGRNAADEDRDALRAALEGADMVFIAAGMGGGTGTGAAPVVAEVAKDLGILTVAVVTKPFNFEGKKRMAFAEQGITELSKHVDSLITIPNDKLLKVLGRGISLLDAFGAANDVLKGAVQGIAELITRPGLMNVDFADVRTVMSEMGYAMMGSGVASGEDRAEEAAEMAISSPLLEDIDLSGARGVLVNITAGFDLRLDEFETVGNTIRAFASDNATVVIGTSLDPDMNDELRVTVVATGIGMDKRPEITLVTNKQVQQPVMDRYQQHGMAPLTQEQKPVAKVVNDNAPQTAKEPDYLDIPAFLRKQAD
modifications: Alexa Fluor 488 label (site not stated)
notes: FtsZ, E. coli, as m1, labeled with Alexa Fluor; schematic gives regions 1-316, 317-369, 370-383; also called labeled fluorescent FtsZ; Fluorescence-labeled FtsZ; source: E. coli BL21 (λDE3), purified, labeled with Alexa Fluor 488; fluorescent active subunits obtained by cycles of polymerization and depolymerization
By stoichiometry N is commonly meant the number of molecules, sites or subunits per partner or assembly. Turning to B2, in data set [4], the “stoichiometry N” value turned out to be 2.
